{"source": "patent US20160272683A1", "about": "(Novo Nordisk, published 2016)", "binders": {"B1": {"name": "[N-terminal(C18 diacid), 17I]mimylin (peptide)", "peptide": "{C18 diacid}-EASELSTAALGRLSAEIHELATLPRTETGPESP-NH2", "SMILES": "CC[C@H](C)[C@H](NC(=O)[C@H](CCC(=O)O)NC(=O)[C@H](C)NC(=O)[C@H](CO)NC(=O)[C@H](CC(C)C)NC(=O)[C@H](CCCNC(=N)N)NC(=O)CNC(=O)[C@H](CC(C)C)NC(=O)[C@H](C)NC(=O)[C@H](C)NC(=O)[C@@H](NC(=O)[C@H](CO)NC(=O)[C@H](CC(C)C)NC(=O)[C@H](CCC(=O)O)NC(=O)[C@H](CO)NC(=O)[C@H](C)NC(=O)[C@H](CCC(=O)O)NC(=O)CCCCCCCCCCCCCCCCC(=O)O)[C@@H](C)O)C(=O)N[C@@H](Cc1c[nH]cn1)C(=O)N[C@@H](CCC(=O)O)C(=O)N[C@@H](CC(C)C)C(=O)N[C@@H](C)C(=O)N[C@H](C(=O)N[C@@H](CC(C)C)C(=O)N1CCC[C@H]1C(=O)N[C@@H](CCCNC(=N)N)C(=O)N[C@H](C(=O)N[C@@H](CCC(=O)O)C(=O)N[C@H](C(=O)NCC(=O)N1CCC[C@H]1C(=O)N[C@@H](CCC(=O)O)C(=O)N[C@@H](CO)C(=O)N1CCC[C@H]1C(N)=O)[C@@H](C)O)[C@@H](C)O)[C@@H](C)O"}, "B2": {"name": "[N-terminal(C20 diacid-gGlu), des1, 4G, 9V, 15Q, 21Q, 23Y, 30S, 31Q, 32T, 33Y]mimylin (peptide)", "peptide": "{C20 diacid-γGlu}-ASGLSTAVLGRLSQELHELQTYPRTETGSQTY-NH2", "SMILES": "CC(C)C[C@H](NC(=O)CNC(=O)[C@H](CO)NC(=O)[C@H](C)NC(=O)CC[C@H](NC(=O)CCCCCCCCCCCCCCCCCCC(=O)O)C(=O)O)C(=O)N[C@@H](CO)C(=O)N[C@H](C(=O)N[C@@H](C)C(=O)N[C@H](C(=O)N[C@@H](CC(C)C)C(=O)NCC(=O)N[C@@H](CCCNC(=N)N)C(=O)N[C@@H](CC(C)C)C(=O)N[C@@H](CO)C(=O)N[C@@H](CCC(N)=O)C(=O)N[C@@H](CCC(=O)O)C(=O)N[C@@H](CC(C)C)C(=O)N[C@@H](Cc1c[nH]cn1)C(=O)N[C@@H](CCC(=O)O)C(=O)N[C@@H](CC(C)C)C(=O)N[C@@H](CCC(N)=O)C(=O)N[C@H](C(=O)N[C@@H](Cc1ccc(O)cc1)C(=O)N1CCC[C@H]1C(=O)N[C@@H](CCCNC(=N)N)C(=O)N[C@H](C(=O)N[C@@H](CCC(=O)O)C(=O)N[C@H](C(=O)NCC(=O)N[C@@H](CO)C(=O)N[C@@H](CCC(N)=O)C(=O)N[C@H](C(=O)N[C@@H](Cc1ccc(O)cc1)C(N)=O)[C@@H](C)O)[C@@H](C)O)[C@@H](C)O)[C@@H](C)O)C(C)C)[C@@H](C)O"}, "B3": {"name": "[N-terminal(C20 diacid-gGlu), des1, 4G, 15Q, 21Q, 23Y, 25H, 30S, 31G, 32T, 33Y]mimylin (peptide)", "peptide": "{C20 diacid-γGlu}-ASGLSTAALGRLSQELHELQTYPHTETGSGTY-NH2", "SMILES": "CC(C)C[C@H](NC(=O)CNC(=O)[C@H](CO)NC(=O)[C@H](C)NC(=O)CC[C@H](NC(=O)CCCCCCCCCCCCCCCCCCC(=O)O)C(=O)O)C(=O)N[C@@H](CO)C(=O)N[C@H](C(=O)N[C@@H](C)C(=O)N[C@@H](C)C(=O)N[C@@H](CC(C)C)C(=O)NCC(=O)N[C@@H](CCCNC(=N)N)C(=O)N[C@@H](CC(C)C)C(=O)N[C@@H](CO)C(=O)N[C@@H](CCC(N)=O)C(=O)N[C@@H](CCC(=O)O)C(=O)N[C@@H](CC(C)C)C(=O)N[C@@H](Cc1c[nH]cn1)C(=O)N[C@@H](CCC(=O)O)C(=O)N[C@@H](CC(C)C)C(=O)N[C@@H](CCC(N)=O)C(=O)N[C@H](C(=O)N[C@@H](Cc1ccc(O)cc1)C(=O)N1CCC[C@H]1C(=O)N[C@@H](Cc1c[nH]cn1)C(=O)N[C@H](C(=O)N[C@@H](CCC(=O)O)C(=O)N[C@H](C(=O)NCC(=O)N[C@@H](CO)C(=O)NCC(=O)N[C@H](C(=O)N[C@@H](Cc1ccc(O)cc1)C(N)=O)[C@@H](C)O)[C@@H](C)O)[C@@H](C)O)[C@@H](C)O)[C@@H](C)O"}, "B4": {"name": "[N-terminal(C20 diacid-gGlu-2xOEG), des1, 4G, 9V, 15Q, 21Q, 23Y, 30S, 31G, 32T, 33Y]mimylin (peptide)", "peptide": "{C20 diacid-γGlu-AEEA-AEEA}-ASGLSTAVLGRLSQELHELQTYPRTETGSGTY-NH2", "SMILES": "CC(C)C[C@H](NC(=O)CNC(=O)[C@H](CO)NC(=O)[C@H](C)NC(=O)COCCOCCNC(=O)COCCOCCNC(=O)CC[C@H](NC(=O)CCCCCCCCCCCCCCCCCCC(=O)O)C(=O)O)C(=O)N[C@@H](CO)C(=O)N[C@H](C(=O)N[C@@H](C)C(=O)N[C@H](C(=O)N[C@@H](CC(C)C)C(=O)NCC(=O)N[C@@H](CCCNC(=N)N)C(=O)N[C@@H](CC(C)C)C(=O)N[C@@H](CO)C(=O)N[C@@H](CCC(N)=O)C(=O)N[C@@H](CCC(=O)O)C(=O)N[C@@H](CC(C)C)C(=O)N[C@@H](Cc1c[nH]cn1)C(=O)N[C@@H](CCC(=O)O)C(=O)N[C@@H](CC(C)C)C(=O)N[C@@H](CCC(N)=O)C(=O)N[C@H](C(=O)N[C@@H](Cc1ccc(O)cc1)C(=O)N1CCC[C@H]1C(=O)N[C@@H](CCCNC(=N)N)C(=O)N[C@H](C(=O)N[C@@H](CCC(=O)O)C(=O)N[C@H](C(=O)NCC(=O)N[C@@H](CO)C(=O)NCC(=O)N[C@H](C(=O)N[C@@H](Cc1ccc(O)cc1)C(N)=O)[C@@H](C)O)[C@@H](C)O)[C@@H](C)O)[C@@H](C)O)C(C)C)[C@@H](C)O"}, "B5": {"name": "[N-terminal(C20 diacid-gGlu), des1, 4G, 9V, 15Q, 21Q, 23Y, 30S, 31G, 32T, 33Y]mimylin (peptide)", "peptide": "{C20 diacid-γGlu}-ASGLSTAVLGRLSQELHELQTYPRTETGSGTY-NH2", "SMILES": "CC(C)C[C@H](NC(=O)CNC(=O)[C@H](CO)NC(=O)[C@H](C)NC(=O)CC[C@H](NC(=O)CCCCCCCCCCCCCCCCCCC(=O)O)C(=O)O)C(=O)N[C@@H](CO)C(=O)N[C@H](C(=O)N[C@@H](C)C(=O)N[C@H](C(=O)N[C@@H](CC(C)C)C(=O)NCC(=O)N[C@@H](CCCNC(=N)N)C(=O)N[C@@H](CC(C)C)C(=O)N[C@@H](CO)C(=O)N[C@@H](CCC(N)=O)C(=O)N[C@@H](CCC(=O)O)C(=O)N[C@@H](CC(C)C)C(=O)N[C@@H](Cc1c[nH]cn1)C(=O)N[C@@H](CCC(=O)O)C(=O)N[C@@H](CC(C)C)C(=O)N[C@@H](CCC(N)=O)C(=O)N[C@H](C(=O)N[C@@H](Cc1ccc(O)cc1)C(=O)N1CCC[C@H]1C(=O)N[C@@H](CCCNC(=N)N)C(=O)N[C@H](C(=O)N[C@@H](CCC(=O)O)C(=O)N[C@H](C(=O)NCC(=O)N[C@@H](CO)C(=O)NCC(=O)N[C@H](C(=O)N[C@@H](Cc1ccc(O)cc1)C(N)=O)[C@@H](C)O)[C@@H](C)O)[C@@H](C)O)[C@@H](C)O)C(C)C)[C@@H](C)O"}}, "note": "Numbered stars: 1 amine (or outer) side, 2 acyl side, 3 side chain; on linkers, the order of the positions; unused ones are H or OH. * marks the point of attachment. C20 diacid = O=C(O)CCCCCCCCCCCCCCCCCCC(=O)*; C18 diacid = O=C(O)CCCCCCCCCCCCCCCCC(=O)*; γGlu = O=C(O)[C@H](CCC(=O)[*:2])N[*:1]; AEEA = NCCOCCOCC(=O)O"}
{"molecular_target": "T1, human calcitonin receptor (human, UniProt P30988 25-474)", "T1 sequence (looked up)": "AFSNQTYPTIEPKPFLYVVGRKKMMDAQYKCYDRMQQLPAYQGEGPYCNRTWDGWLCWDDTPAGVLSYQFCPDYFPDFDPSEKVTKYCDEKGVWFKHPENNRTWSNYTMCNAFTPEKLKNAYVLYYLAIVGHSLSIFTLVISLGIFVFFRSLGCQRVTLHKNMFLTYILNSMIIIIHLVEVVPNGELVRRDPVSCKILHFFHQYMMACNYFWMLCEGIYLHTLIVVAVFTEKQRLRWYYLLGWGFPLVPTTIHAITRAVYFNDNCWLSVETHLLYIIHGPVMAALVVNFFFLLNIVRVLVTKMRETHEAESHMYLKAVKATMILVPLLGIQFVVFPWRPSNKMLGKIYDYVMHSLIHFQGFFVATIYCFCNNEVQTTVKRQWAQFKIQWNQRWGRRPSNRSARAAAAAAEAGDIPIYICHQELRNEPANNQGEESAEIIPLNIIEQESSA", "assay": "cell-based or functional assay", "units": {"hCTR funct. EC50 (pM)": "pM"}}
{"binder": "B1", "hCTR funct. EC50 (pM)": 5}
{"binder": "B2", "hCTR funct. EC50 (pM)": 49}
{"binder": "B3", "hCTR funct. EC50 (pM)": 27}
{"binder": "B4", "hCTR funct. EC50 (pM)": 52}
{"binder": "B5", "hCTR funct. EC50 (pM)": 65}
{"molecular_target": "T2, human amylin 3(a) receptor (human calcitonin receptor co-expressed with RAMP-3) (human, UniProt P30988 25-474; O60896 24-148, limits assumed)", "T2 sequence (looked up) 1": "T1 sequence (looked up)", "T2 sequence (looked up) 2": "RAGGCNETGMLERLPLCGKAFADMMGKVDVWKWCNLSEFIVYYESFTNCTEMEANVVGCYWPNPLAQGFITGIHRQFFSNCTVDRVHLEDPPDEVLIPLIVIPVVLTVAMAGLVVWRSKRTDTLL", "assay": "cell-based or functional assay", "units": {"hAmylin-R funct. EC50 (pM)": "pM"}}
{"binder": "B1", "hAmylin-R funct. EC50 (pM)": 7}
{"binder": "B2", "hAmylin-R funct. EC50 (pM)": 72}
{"binder": "B3", "hAmylin-R funct. EC50 (pM)": 41}
{"binder": "B4", "hAmylin-R funct. EC50 (pM)": 89}
{"binder": "B5", "hAmylin-R funct. EC50 (pM)": 57}
